In one series the target is RNaseH1 D210N;RPA (Homo sapiens;Homo sapiens, UniProt O60930;P27694;P15927;P35244 27-286;1-616;1-270;1-121, D210N|). Nature of the series: EMSA.
For another series, the target named is T1, RNaseH1 D210N (Homo sapiens, UniProt O60930 27-286, D210N).
T1 sequence: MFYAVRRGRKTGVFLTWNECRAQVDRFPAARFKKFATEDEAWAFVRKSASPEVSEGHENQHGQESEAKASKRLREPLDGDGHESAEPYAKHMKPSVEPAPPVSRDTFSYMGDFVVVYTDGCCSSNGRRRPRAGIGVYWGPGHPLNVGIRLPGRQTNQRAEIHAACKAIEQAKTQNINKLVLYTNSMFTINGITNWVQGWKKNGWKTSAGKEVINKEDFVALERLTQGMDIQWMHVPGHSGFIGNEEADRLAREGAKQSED
Put plainly: EMSA.

Sequence of RNaseH1 D210N;RPA (P27694 whole entry, chain 2 of 3): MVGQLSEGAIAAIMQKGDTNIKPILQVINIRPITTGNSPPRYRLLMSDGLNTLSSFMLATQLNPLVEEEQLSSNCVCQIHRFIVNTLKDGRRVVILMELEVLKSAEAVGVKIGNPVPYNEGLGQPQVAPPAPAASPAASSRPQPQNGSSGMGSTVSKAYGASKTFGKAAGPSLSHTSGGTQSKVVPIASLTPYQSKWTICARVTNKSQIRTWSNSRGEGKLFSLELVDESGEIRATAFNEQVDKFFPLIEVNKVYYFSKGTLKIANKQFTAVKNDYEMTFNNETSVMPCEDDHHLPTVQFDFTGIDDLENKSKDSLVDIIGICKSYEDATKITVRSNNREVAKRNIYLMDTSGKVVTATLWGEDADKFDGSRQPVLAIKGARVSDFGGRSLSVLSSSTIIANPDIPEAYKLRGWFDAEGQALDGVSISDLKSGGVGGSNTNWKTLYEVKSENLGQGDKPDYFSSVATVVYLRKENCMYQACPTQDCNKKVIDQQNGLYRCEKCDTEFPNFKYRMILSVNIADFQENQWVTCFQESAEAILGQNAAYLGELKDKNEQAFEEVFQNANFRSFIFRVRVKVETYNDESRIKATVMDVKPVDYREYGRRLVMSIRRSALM
Sequence of RNaseH1 D210N;RPA (P15927 whole entry, chain 3 of 3): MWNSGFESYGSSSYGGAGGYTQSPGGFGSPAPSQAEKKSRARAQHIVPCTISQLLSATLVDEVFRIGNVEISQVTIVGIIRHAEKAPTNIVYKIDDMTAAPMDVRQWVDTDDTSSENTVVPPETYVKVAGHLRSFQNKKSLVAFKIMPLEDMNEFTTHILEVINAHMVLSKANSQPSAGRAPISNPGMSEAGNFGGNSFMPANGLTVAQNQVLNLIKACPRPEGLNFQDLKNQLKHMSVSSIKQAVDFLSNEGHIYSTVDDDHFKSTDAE
Sequence of RNaseH1 D210N;RPA (P35244 whole entry, chain 4 of 3): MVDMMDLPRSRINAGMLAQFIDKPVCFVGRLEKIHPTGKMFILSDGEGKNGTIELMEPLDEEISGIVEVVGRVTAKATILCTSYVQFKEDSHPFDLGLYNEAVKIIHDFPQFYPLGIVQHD

B1: R:D (25-bp RNA:DNA hybrid) (DNA:RNA)
RNA: GCAGCUGGCACGACAGGUAUGAAUC
DNA: GATTCATACCTGTCGTGCCAGCTGC
As for B1, the binding result with RNaseH1 D210N;RPA and with RNaseH1 D210N was “binds” in each case.
